Measured values as given in article PMC9495280 (Nature structural & molecular biology, 2022).
Numbering of substitutions follows the chain as printed. In names and notes the source's numbering stands. Read-outs that look alike come from different tables or passages of the source.

B1: KaiC-EA K224A (natural protein)
chain: MTSAEMTSPNNNSEHQAIAKMRTMIEGFDDISHGGLPIGRSTLVSGTSGTGKTLFSIQFLYNGIIEFDEPGVFVTFEETPQDIIKNARSFGWDLAKLVDEGKLFILDASPDPEGQEVVGGFDLSALIERINYAIQKYRARRVSIDSVTSVFQQYDASSVVRRELFRLVARLKQIGATTVMTTERIEEYGPIARYGVEEFVSDNVVILRNVLEGERRRRTLEILALRGTSHMKGEYPFTITDHGINIFPLGAMRLTQRSSNVRVSSGVVRLDEMCGGGFFKDSIILATGATGTGKTLLVSRFVENACANKERAILFAYEESRAQLLRNAYSWGMDFEEMERQNLLKIVCAYPESAGLEDHLQIIKSEINDFKPARIAIDSLSALARGVSNNAFRQFVIGVTGYAKQEEITGLFTNTSDQFMGAHSITDSHIEAITDTIILLQYVEIRGEMSRAINVFKMRGSWHDKAIREFMISDKGPDIKDSFRNFERIISGSPTRITVDEKSELSRIVRGVQEKGPES
B2: KaiC-S431E-T432A (natural protein, Synechococcus elongatus)
chain: B1 chain with A224K
B3: nighttime KaiC R216A (natural protein)
chain: B1 chain with R216A, A224K
B4: nighttime KaiC H230A (natural protein)
chain: B1 chain with A224K, H230A
B5: nighttime KaiC-K457A (natural protein)
chain: B1 chain with A224K, K457A
B6: KaiC-S431A-T432E (natural protein, Synechococcus elongatus)
chain: B1 chain with A224K, E431A, A432E
B7: nighttime KaiC I430G (natural protein)
chain: B1 chain with A224K, I430G
B8: nighttime KaiC R226A (natural protein)
chain: B1 chain with A224K, R226A
B9: nighttime KaiC R217A (natural protein)
chain: B1 chain with R217A, A224K
B10: daytime KaiC-K457A (natural protein)
chain: B1 chain with A224K, E431A, A432E, K457A
B11: KaiB-I87A (natural protein, Synechococcus elongatus, UniProt Q79PF5 1-102, looked up)
chain: MSPRKTYILKLYVAGNTPNSVRALKTLKNILEVEFQGVYALKVIDVLKNPQLAEEDKILATPTLAKVLPLPVRRIIGDLSDREKVLAGLDLLYGELQDSDDF

Tests used:
[1] = target: fluorescently labeled KaiB (Synechococcus elongatus) (UniProt Q79PF5); assay: fluorescence polarisation
cryo-EM structure [2] = target: the molecule itself; assay: cryo-EM structure
cryo-EM structure [3] = target: the molecule itself; assay: cryo-EM structure; remark: listed apart in the source
KaiC-S431E-T432A = target: B2; assay: fluorescence polarisation

B1
Kd [1]: 4.6 µM

B2
stoichiometry N (cryo-EM structure [2]): 6

B3
Kd [1]: > 25 µM

B4
Kd [1]: 5.9 µM

B5
Kd [1]: 4.6 µM

B6
stoichiometry N (cryo-EM structure [3]): 6 | Kd [1]: > 43 µM

B7
Kd [1]: > 25 µM

B8
Kd [1]: > 38 µM

B9
KaiB cooperativity index (fsKaiB as secondary titrant) [1]: 1.6 | Kd [1]: > 13 µM

B10
Kd [1]: 7.3 µM

B11
binding result (KaiC-S431E-T432A): binds
